{"source": "paper PMC4351820", "biological_target": "hSSB1 (SSB1, single-stranded DNA binding protein 1) (human, UniProt Q9BQ15 1-211)", "sequence (Q9BQ15 whole entry)": "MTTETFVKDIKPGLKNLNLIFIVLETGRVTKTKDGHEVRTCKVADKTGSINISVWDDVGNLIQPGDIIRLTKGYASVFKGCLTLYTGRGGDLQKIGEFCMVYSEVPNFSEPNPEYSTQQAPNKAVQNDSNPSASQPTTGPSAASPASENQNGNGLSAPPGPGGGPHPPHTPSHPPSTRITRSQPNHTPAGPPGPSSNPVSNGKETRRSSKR", "experiment": "EMSA"}
{"binder": "TTAGGGTTAGGGTTAGGGTTAGGGTTAGGG (ssDNA)", "note": "[G-rich telomeric strand (TTAGGG)5]", "values": [{"measurement": "binding result", "result": "binds"}]}
